Test results from patent US20090004183A1 (published 2009).

Molecular target: T1, C3b deposited on zymosan or Sepharose 4B (human, UniProt P01024 23-667; P01024 749-1663, limits assumed, covalently deposited on zymosan A or Sepharose 4B by opsonization in normal human serum)
T1 construct: The whole C3 entry is named; The deposit may include iC3b; also called C3b-opsonized zymosan; C3b-zymosan
Assay: flow cytometry on zymosan opsonized in 50% NHS
Method: After 30 minutes, the reactions were quenched with EDTA, washed and samples without the mAbs were probed with the respective A1488 mAbs.

T1 sequence (P01024 23-667 limits assumed, chain 1 of 2): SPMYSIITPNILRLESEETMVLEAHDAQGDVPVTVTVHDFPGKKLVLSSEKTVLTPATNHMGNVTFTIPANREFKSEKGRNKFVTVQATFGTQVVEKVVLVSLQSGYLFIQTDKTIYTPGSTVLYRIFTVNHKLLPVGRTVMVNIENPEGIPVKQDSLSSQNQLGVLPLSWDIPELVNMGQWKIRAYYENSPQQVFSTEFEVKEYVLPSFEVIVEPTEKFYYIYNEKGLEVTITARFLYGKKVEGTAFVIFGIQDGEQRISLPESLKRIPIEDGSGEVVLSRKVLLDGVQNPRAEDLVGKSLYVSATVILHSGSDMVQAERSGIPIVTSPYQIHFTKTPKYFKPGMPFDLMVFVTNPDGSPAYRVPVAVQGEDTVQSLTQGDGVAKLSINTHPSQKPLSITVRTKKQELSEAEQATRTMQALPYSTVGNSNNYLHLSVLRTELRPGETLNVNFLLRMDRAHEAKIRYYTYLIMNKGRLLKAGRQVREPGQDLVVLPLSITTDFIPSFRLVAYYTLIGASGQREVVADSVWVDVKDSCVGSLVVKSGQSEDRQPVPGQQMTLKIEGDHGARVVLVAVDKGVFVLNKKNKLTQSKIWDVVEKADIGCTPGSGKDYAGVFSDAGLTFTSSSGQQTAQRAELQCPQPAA
T1 sequence (P01024 749-1663 limits assumed, chain 2 of 2): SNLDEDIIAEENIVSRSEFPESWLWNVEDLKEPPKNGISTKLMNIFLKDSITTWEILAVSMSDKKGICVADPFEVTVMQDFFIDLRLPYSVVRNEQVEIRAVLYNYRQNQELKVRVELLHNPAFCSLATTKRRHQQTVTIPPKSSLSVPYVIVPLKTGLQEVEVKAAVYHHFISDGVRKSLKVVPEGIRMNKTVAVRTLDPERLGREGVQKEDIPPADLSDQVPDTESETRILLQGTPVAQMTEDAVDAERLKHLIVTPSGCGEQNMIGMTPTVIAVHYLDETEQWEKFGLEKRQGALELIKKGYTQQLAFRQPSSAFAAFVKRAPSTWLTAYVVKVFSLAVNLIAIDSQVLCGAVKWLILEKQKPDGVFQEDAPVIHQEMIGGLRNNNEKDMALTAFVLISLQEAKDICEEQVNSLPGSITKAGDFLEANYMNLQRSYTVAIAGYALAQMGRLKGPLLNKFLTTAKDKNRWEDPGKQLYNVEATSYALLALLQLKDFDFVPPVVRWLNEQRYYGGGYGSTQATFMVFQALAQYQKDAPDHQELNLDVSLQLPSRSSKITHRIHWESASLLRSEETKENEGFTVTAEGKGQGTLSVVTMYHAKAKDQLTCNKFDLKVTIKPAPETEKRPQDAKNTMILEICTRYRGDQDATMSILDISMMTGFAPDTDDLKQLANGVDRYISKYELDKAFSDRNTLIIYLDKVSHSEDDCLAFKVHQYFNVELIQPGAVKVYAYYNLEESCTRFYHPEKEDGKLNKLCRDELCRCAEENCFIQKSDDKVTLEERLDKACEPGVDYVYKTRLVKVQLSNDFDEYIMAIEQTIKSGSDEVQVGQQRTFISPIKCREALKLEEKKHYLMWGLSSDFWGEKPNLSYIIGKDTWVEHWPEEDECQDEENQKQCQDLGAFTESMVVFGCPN

fold increase in binding (probe added after opsonization versus present from the start) [fold]	Binder
200	mAb H17 (antibody, V domains shown, It is a chimeric, de-immunized form of 3E7 with human gamma1 and kappa constant regions, expressed in NS0 cells; also called H117; deimmunized chimeric 3E7) VH: EVQLQESGPSLVKPSQTLSLTCTVSGDSITSDYWNWIRQAPGKGLESMGYITYSGTTYYNPSLKSRVTISRDTSKNQYYMELSSLRSEDTATYYCARGVDYEPSYYFDYWGQGTLVTVSS VL: DIQMTQSPSSLSASVGDRVTITCSASQGISNYLNWYQQKPGKAPKLLIYYTSSLHSGVPSRFSGSGSGTDYSLTISSLQPEDIATYYCQQYSNLPWTFGQGTKVEIK
200	mAb 3E7 (antibody, mouse IgG1, V domains shown, also called mouse IgG1 mAb 3E7; A1488 mAb 3E7) VH: EVQLQESGPSLVKPSQTLSLTCSVTGDSITSDYWNWIRKFPGNKLESMGYITYSGTTYYNPSLKSRISITRDTSKNQYYLQLNSVTSEDTATYYCARGVDYEPSYYFDYWGQGTTLTVSS VL: DIQMTQTTSSLSASLGDRVTISCSASQGISNYLNWYQQKPDGTVKLLIYYTSSLHSGVPSRFSGSGSGTDYSLTISNLEPEDIATYYCQQYSNLPWTFGGGTKLEIK
